Measured values reported in patent CN117545770A (HOFFMANN LA ROCHE, dated 2024).

B1: HLA-G-0090-VL-S33P (antibody, IgG1, V domains shown)
VH: QVQLQQSGPGLLKPSQTLSLTCAISGDSVSSNRAAWNWIRQSPSRGLEWLGRTYYRSKWYNDYAVSVQGRITLIPDTSKNQFSLRLNSVTPEDTAVYYCASVRAVAPFDYWGQGVLVTVSS
VL: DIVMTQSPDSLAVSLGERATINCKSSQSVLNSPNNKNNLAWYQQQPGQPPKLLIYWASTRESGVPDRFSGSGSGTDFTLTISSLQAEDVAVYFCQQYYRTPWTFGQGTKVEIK
notes: IgG1 format, HEK293F; also called HLA-G-0090-S33P
B2: HLA-G-0090-VL-S33D (antibody, IgG1, V domains shown)
VH: B1 VH
VL: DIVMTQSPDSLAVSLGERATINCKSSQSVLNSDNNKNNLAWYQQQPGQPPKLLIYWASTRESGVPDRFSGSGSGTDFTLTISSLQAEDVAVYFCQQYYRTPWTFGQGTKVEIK
notes: IgG1 format, HEK293F; also called HLA-G-0090--S33D
B3: HLA-G-0090 (antibody, IgG1, V domains shown)
VH: B1 VH
VL: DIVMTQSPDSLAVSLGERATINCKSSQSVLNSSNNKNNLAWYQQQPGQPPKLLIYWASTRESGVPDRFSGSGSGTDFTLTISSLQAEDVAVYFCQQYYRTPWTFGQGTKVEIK
modifications: N-glycosylation at the NSS motif of CDR-L1 (LC positions 31-33; Fab glycosylation found by mass spectrometry); N-glycosylation in CDR-L1 (NSS motif, LC 31-33) is on the light chain, not on this chain
notes: also called 亲代抗体HLA-G-0090
B4: HLA-G-0090-VL-S33A (antibody, V domains shown)
VH: B1 VH
VL: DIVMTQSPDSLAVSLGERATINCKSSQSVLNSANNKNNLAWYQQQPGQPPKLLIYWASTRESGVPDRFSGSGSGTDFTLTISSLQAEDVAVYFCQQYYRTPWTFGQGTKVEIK
notes: also called HLA-G-0090-S33A
B5: HLA-G-0090-VL-S32P (antibody, V domains shown)
VH: B1 VH
VL: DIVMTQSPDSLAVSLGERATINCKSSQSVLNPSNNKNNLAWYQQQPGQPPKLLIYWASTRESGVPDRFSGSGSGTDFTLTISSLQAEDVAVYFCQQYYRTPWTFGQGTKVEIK
notes: also called HLA-G-0090-S32P

These binders were tested against T1, 重组单链HLA-G单体/人HLA-Gβ2M MHC I类复合物 (SEQ ID NO:39) (human) (assay: SPR multi-cycle kinetics).
T1 construct: also called wt-HLA-G复合物; wt-HLA-G抗原

fold decrease of binding affinity against HLA-G-0090 [fold]	Binder
2	B1
5	B2

These binders were tested against T1, 重组单链HLA-G单体/人HLA-Gβ2M MHC I类复合物 (SEQ ID …) (assay: SPR Biacore T200, 25 °C, multi-cycle kinetics; antibody captured by anti-hFc on CM3 chip, HLA-G complex as analyte; 1:1 Langmuir).

t1/2 [min]	Binder
6.5	B3
3.13	B1
7.76	B4
7.34	B5
1.73	B2
